This passage reports Kd results from article PMC9352680, “A comprehensive thermodynamic model for RNA binding by the Saccharomyces cerevisiae Pumilio protein PUF4”.

To fix the notation:
B1: Id_i_S2_P3E.5_K3.1_C3.3_[T-3G]_[C-2T]_[T-1C]_H3.1_A3.1_F3.1_T3.2 (ssRNA)
RNA: UUUGAUUAAUAUGAUAUCGUUCUUUCUGUCUGUAUAUAUAUUCUUUCUCGAUAUCAUAUUAAUCUUU
B2: Id_i_S2_P3E.5_K3.1_C3.3_[T-3A]_[C-2G]_[T-1C]_H3.1_A3.1_F3.1_T3.2 (ssRNA)
RNA: B1 RNA with G28A, U29G
B3: Id_i_S2_P3E.7_K3.3_C3.3_[T-3A]_[C-2T]_[T-1G]_H3.3_A3.1_F3.1_T3.2 (ssRNA)
RNA: B1 RNA with G28A, C30G, U31A, G32C, U33A, A34C
B4: Id_i_S2_P3E.6_K3.2_C3.3_[T-3C]_[C-2G]_[T-1C]_H3.2_A3.1_F3.1_T3.2 (ssRNA)
RNA: B1 RNA with G28C, U29G, G32A
B5: Id_i_S2_P3E.7_K3.3_C3.3_[T-3C]_[C-2T]_[T-1A]_H3.3_A3.1_F3.1_T3.2 (ssRNA)
RNA: B1 RNA with G28C, C30A, U31A, G32C, U33A, A34C
B6: Id_i_S2_P3E.5_K3.1_C3.3_[T-3A]_[C-2A]_[T-1C]_H3.1_A3.1_F3.1_T3.2 (ssRNA)
RNA: B1 RNA with G28A, U29A
B7: Id_i_S2_P3E.6_K3.2_C3.3_[T-3A]_[C-2G]_[T-1C]_H3.2_A3.1_F3.1_T3.2 (ssRNA)
RNA: B1 RNA with G28A, U29G, G32A
B8: Id_i_S2_P3E.7_K3.3_C3.3_[T-3A]_[C-2T]_[T-1A]_H3.3_A3.1_F3.1_T3.2 (ssRNA)
RNA: B1 RNA with G28A, C30A, U31A, G32C, U33A, A34C
B9: Id_i_S2_P3E.5_K3.1_C3.3_[T-3C]_[C-2T]_[T-1C]_H3.1_A3.1_F3.1_T3.2 (ssRNA)
RNA: B1 RNA with G28C
B10: Id_i_S2_P3E.6_K3.2_C3.3_[T-3A]_[C-2A]_[T-1C]_H3.2_A3.1_F3.1_T3.2 (ssRNA)
RNA: B1 RNA with G28A, U29A, G32A
B11: Id_i_S2_P3E.7_K3.3_C3.3_[T-3C]_[C-2A]_[T-1C]_H3.3_A3.1_F3.1_T3.2 (ssRNA)
RNA: B1 RNA with G28C, U29A, U31A, G32C, U33A, A34C
B12: Id_i_S2_P3E.5_K3.1_C3.3_[T-3C]_[C-2A]_[T-1C]_H3.1_A3.1_F3.1_T3.2 (ssRNA)
RNA: B1 RNA with G28C, U29A
B13: Id_i_S2_P3E.7_K3.3_C3.3_[T-3C]_[C-2A]_[T-1A]_H3.3_A3.1_F3.1_T3.2 (ssRNA)
RNA: B1 RNA with G28C, U29A, C30A, U31A, G32C, U33A, A34C
B14: Id_i_S2_P3E.6_K3.2_C3.3_[T-3A]_[C-2T]_[T-1C]_H3.2_A3.1_F3.1_T3.2 (ssRNA)
RNA: B1 RNA with G28A, G32A
B15: Id_i_S2_P3E.5_K3.1_C3.3_[T-3A]_[C-2T]_[T-1C]_H3.1_A3.1_F3.1_T3.2 (ssRNA)
RNA: B1 RNA with G28A
B16: Id_i_S2_P3E.7_K3.3_C3.3_[T-3A]_[C-2G]_[T-1C]_H3.3_A3.1_F3.1_T3.2 (ssRNA)
RNA: B1 RNA with G28A, U29G, U31A, G32C, U33A, A34C
B17: Id_i_S2_P3E.6_K3.2_C3.3_[T-3C]_[C-2T]_[T-1C]_H3.2_A3.1_F3.1_T3.2 (ssRNA)
RNA: B1 RNA with G28C, G32A
B18: Id_i_S2_P3E.6_K3.2_C3.3_[T-3G]_[C-2G]_[T-1C]_H3.2_A3.1_F3.1_T3.2 (ssRNA)
RNA: B1 RNA with U29G, G32A
B19: Id_i_S2_P3E.5_K3.1_C3.3_[T-3C]_[C-2T]_[T-1A]_H3.1_A3.1_F3.1_T3.2 (ssRNA)
RNA: B1 RNA with G28C, C30A
B20: Id_i_S2_P3E.7_K3.3_C3.3_[T-3C]_[C-2A]_[T-1G]_H3.3_A3.1_F3.1_T3.2 (ssRNA)
RNA: B1 RNA with G28C, U29A, C30G, U31A, G32C, U33A, A34C
B21: Id_i_S2_P3E.6_K3.2_C3.3_[T-3C]_[C-2A]_[T-1C]_H3.2_A3.1_F3.1_T3.2 (ssRNA)
RNA: B1 RNA with G28C, U29A, G32A
B22: Id_i_S2_P3E.7_K3.3_C3.3_[T-3G]_[C-2T]_[T-1A]_H3.3_A3.1_F3.1_T3.2 (ssRNA)
RNA: B1 RNA with C30A, U31A, G32C, U33A, A34C
B23: Id_i_S2_P3E.5_K3.1_C3.3_[T-3C]_[C-2T]_[T-1G]_H3.1_A3.1_F3.1_T3.2 (ssRNA)
RNA: B1 RNA with G28C, C30G
B24: Id_i_S2_P3E.3_K3.2_C3.2_[C-2T]_[T-1A]_H3.2_A3.1_F3.1_T3.2 (ssRNA)
RNA: UUUGAUUAAUAUGAUAUCGUUCUUUCUUAUAUAUAUAUAUUCUUUCUCGAUAUCAUAUUAAUCUUU
B25: Id_ii_S2_P3E.4_K3.3_C3.2_[C-2T]_[T-1C]_H3.3_A3.1_F3.1_T3.2 (ssRNA)
RNA: B24 RNA with A29C, U30A, A31C, U32A, A33C
B26: Id_ii_S2_P3E.4_K3.3_C3.2_[C-2A]_[T-1A]_H3.3_A3.1_F3.1_T3.2 (ssRNA)
RNA: B24 RNA with U28A, U30A, A31C, U32A, A33C
B27: Id_ii_S2_P3E.4_K3.3_C3.2_[C-2A]_[T-1C]_H3.3_A3.1_F3.1_T3.2 (ssRNA)
RNA: B24 RNA with U28A, A29C, U30A, A31C, U32A, A33C
B28: Id_ii_S2_P3E.3_K3.2_C3.2_[C-2A]_[T-1C]_H3.2_A3.1_F3.1_T3.2 (ssRNA)
RNA: B24 RNA with U28A, A29C
B29: Id_ii_S2_P3E.4_K3.3_C3.2_[C-2T]_[T-1A]_H3.3_A3.1_F3.1_T3.2 (ssRNA)
RNA: B24 RNA with U30A, A31C, U32A, A33C

Where a chain is given by its changes, count along the chain named. Names and notes keep the numbering of the source.

The data set addresses T1, PUF4 RNA-binding domain (Saccharomyces cerevisiae, UniProt P25339 537-888).
T1 sequence: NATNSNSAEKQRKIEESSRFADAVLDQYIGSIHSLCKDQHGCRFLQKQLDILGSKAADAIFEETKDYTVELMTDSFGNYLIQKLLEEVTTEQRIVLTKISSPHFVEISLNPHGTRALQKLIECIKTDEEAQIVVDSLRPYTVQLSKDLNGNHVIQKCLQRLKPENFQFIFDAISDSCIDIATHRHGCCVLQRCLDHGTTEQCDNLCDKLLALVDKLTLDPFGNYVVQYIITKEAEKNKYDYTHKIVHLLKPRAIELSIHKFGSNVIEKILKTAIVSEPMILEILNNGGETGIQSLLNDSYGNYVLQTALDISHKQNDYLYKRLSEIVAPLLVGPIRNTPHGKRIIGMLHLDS
The data set is described as follows: Mg; RNA-MaP; 20 mM Na-HEPES pH 7.4, 30 mM KOAc, 0.75 mM MgCl2, 0.1% Tween-20, 5% glycerol, 0.1 mg/mL BSA, 2 mM DTT; 25 C; 0.0125-409.6 nM protein. The settings on record: tags: N-His6-TEV cleaved; C-SNAP kept, Cy3B-labelled; label: tethered on chip by stalled RNA polymerase.
As usually defined, the Kd is the equilibrium constant for the complex coming apart. The low end stands for higher affinity, the high end for lower affinity. In the case of UCUCUUCUUAUAUUAUCUCUU (ssRNA) [Ib_S1_P4E.1_K4.1_C4.1_H4.1_[T1C]_[G2T]_A4.1_F4.1_T4.1], the affinity, expressed as Kd, was 685 nM.

As for ACAAACAGUAUAUAUAUAACAAAC (ssRNA) [Id_i_S3_P3E.3_K3.2_C3.2_[C-2A]_[T-1G]_H3.2_A3.1_F3.1_T3.2], binding was put at a Kd of 385 nM.

Turning to UCUCUUCCUAUAUUAUCUCUU (ssRNA) [Ib_S1_P4E.1_K4.1_C4.1_H4.1_[T1C]_[G2C]_A4.1_F4.1_T4.1], the Kd turned out to be 1290 nM.

On to ACAAACGGUAUAUAUAUAACAAAC (ssRNA) [Id_ii_S3_P3E.3_K3.2_C3.2_[C-2G]_[T-1G]_H3.2_A3.1_F3.1_T3.2], for which the affinity, expressed as Kd, was 550 nM.

For B1, the Kd worked out at 2.83 nM.

Regarding B2, binding was characterised by a dissociation constant (Kd) of 2.13 nM.

In turn, B3 registered a Kd of 597 nM.

The molecule B4 showed a Kd of 68.2 nM.

B5 came in with a Kd of 214 nM.

For B6, the Kd stood at 1.39 nM.

As to B7, the Kd turned out to be 528 nM.

B8: the affinity, expressed as Kd, was 708 nM.

The molecule B9 gave a Kd of 0.917 nM.

As to B10, the Kd worked out at 105 nM.

In the case of B11, the Kd is 482 nM.

In turn, B12 registered a Kd of 1.09 nM.

As for B13, the Kd amounted to 222 nM.

For the molecule B14, binding was characterised by a dissociation constant (Kd) of 170 nM.

For the molecule B15, the Kd stood at 1.7 nM.

In turn, B16 yielded a Kd of 429 nM.

For the molecule B17, the Kd amounted to 35 nM.

On to B18, for which binding was characterised by a dissociation constant (Kd) of 1300 nM.

On to B19, for which the Kd stood at 3.83 nM.

The molecule B20 registered a Kd of 610 nM.

B21 showed an equilibrium dissociation constant (Kd) of 68.5 nM.

Regarding B22, the Kd was determined as 5.76 nM.

B23 gave a Kd of 1.23 nM.

In turn, ACAAACCGGUAUAUAUAUAACAAAC (ssRNA) [Id_i_S3_P3E.6_K3.2_C3.3_[T-3C]_[C-2G]_[T-1G]_H3.2_A3.1_F3.1_T3.2] registered a Kd of 1060 nM.

In the case of ACAAACACACACUAUAUAACAAAC (ssRNA) [Id_i_S3_P3E.4_K3.3_C3.2_[C-2A]_[T-1C]_H3.3_A3.1_F3.1_T3.2], the Kd was over 2300 nM.

Turning to B24, the dissociation constant Kd worked out at 560 nM.

Molecule B25 yielded a Kd of 222 nM.

In turn, B26 displayed a Kd of 238 nM.

As to B27, the Kd turned out to be 242 nM.

Molecule B28 yielded a Kd of 66.8 nM.

The molecule B29 gave a Kd of 215 nM.

Take ACAAACGCACACUAUAUAACAAAC (ssRNA) [Id_ii_S3_P3E.4_K3.3_C3.2_[C-2G]_[T-1C]_H3.3_A3.1_F3.1_T3.2]: the Kd came to 1830 nM.

Regarding ACAAACUCACACUAUAUAACAAAC (ssRNA) [Id_i_S3_P3E.4_K3.3_C3.2_[C-2T]_[T-1C]_H3.3_A3.1_F3.1_T3.2], the Kd was over 2300 nM.

Molecule ACAAACGGCUAUAUAUAUAACAAAC (ssRNA) [Id_i_S3_P3E.6_K3.2_C3.3_[T-3G]_[C-2G]_[T-1C]_H3.2_A3.1_F3.1_T3.2] showed a Kd of 1360 nM.

UCUCUUAAUAUAUUAUCUCUU (ssRNA) [Ib_S1_P4E.1_K4.1_C4.1_H4.1_[T1A]_[G2A]_A4.1_F4.1_T4.1] had a Kd of 564 nM.

As for ACAAACAAUAUAUAUAUAACAAAC (ssRNA) [Id_ii_S3_P3E.3_K3.2_C3.2_[C-2A]_[T-1A]_H3.2_A3.1_F3.1_T3.2], the affinity, expressed as Kd, was 531 nM.

For ACAAACAGACACUAUAUAACAAAC (ssRNA) [Id_ii_S3_P3E.4_K3.3_C3.2_[C-2A]_[T-1G]_H3.3_A3.1_F3.1_T3.2], the dissociation constant (Kd) was over 2300 nM.

For the molecule UCUCUUCAUAUAUUAUCUCUU (ssRNA) [Ib_S1_P4E.1_K4.1_C4.1_H4.1_[T1C]_[G2A]_A4.1_F4.1_T4.1], the affinity, expressed as Kd, was 487 nM.
